Test results: the supplement of paper PMC12042874
± gives the uncertainty stated by the source.

Assay: amyloid nucleation score (Sup35N fusion, yeast selection) (log enrichment); library NNK1; higher = more nucleation; inactive = no reads after selection
Outline: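 Plasmid inserts were Illumina-sequenced at input and output from psi-negative yeast expressing Sup35N fused to peptides of 20 random codons. The yeast were induced with 100 μM copper sulfate for 24 hours and grown 7 days at 30°C on medium lacking adenine and uracil, and sequences with under 100 input reads were excluded. Nucleation score is the DiMSum log enrichment of output over input reads, centred on the mode score of non-aggregating sequences.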

Substance	amyloid nucleation score
NYFIVLSR	2.09 ± 0.43
NYFTVCLKGVRSDPPSVAKG	-0.596 ± 0.4
NYILFWRTSSNFECPYP	0.181 ± 0.24
NYLLWVAHPIVSY	-0.502 ± 0.34
NYNTIWMMKWFNGRWFLSAV	-0.293 ± 0.94
PAHKLILFPPCCVGVWYSER	inactive
PALFVCSSFKLFMPNILGNQ	6.16 ± 0.063
PALWDLCVPKLIVANLIERS	-1.1 ± 1.4
PALWWSMYSIQCPEEIGGAV	0.405 ± 0.55
PAVFCW	0.387 ± 0.48
PCINRFHGIGFHCRLWTVYV	0.816 ± 0.98
PCIVKYRNSGLHNYRIRLNR	-1.12 ± 0.97
PCTMGMYIGAGHR	0.418 ± 1
PCYRLWLVSAWAVTQEFTSW	1.35 ± 0.14
PDHLTIQSCDARYGFASQL	1.78 ± 0.47
PDMCQERNYCELYPCKARAT	-0.612 ± 0.41
PDSCIENLDMWYTFNGDNDT	-0.828 ± 0.3
PDSTVARVDVSPELIFCLKS	-0.708 ± 0.6
PDTYRLWRWSCIFEKCCDEG	-0.194 ± 0.41
PEDFHNLFLKINGYLSYAFV	-1.54 ± 1.1
PFTCCAVVPFSVTFSRVLES	inactive
PFTNQPMSPARHLFI	-1.88 ± 2.4
PGFPNLVTSRTLIVCQL	inactive
PGLFYETDHVASVVVCKSPH	-0.231 ± 0.45
PIFLGLFDDRYMG	0.116 ± 0.45

Substance	amyloid nucleation score
PIIILFL	1.15 ± 0.54
PILCGTSLSQINDYYGV	-0.369 ± 0.56
PITMQSMSFFRRVLLVFFLY	0.813 ± 0.5
PKCLNESMVGRRWLAIMGRV	0.328 ± 0.72
PLAAYCSVDYGQKIQIATVP	-0.541 ± 0.42
PLAMNSFVIVIDGRLHVLGD	4.72 ± 0.12
PLLEATNCDLHGLVRLLMRF	0.651 ± 0.72
PLPPLVMLPQ	-0.481 ± 0.8
PLPVNPYPTHATIGWPRISG	-0.427 ± 0.55
PLSVFTTPPSDHCDIKGKIE	-0.852 ± 2.1
PLVCRGLLSRCGNPSGKCGR	-0.125 ± 1.7
PLVNVYSSAYYSRHLKGLCV	-0.782 ± 0.69
PLVSTHALSAGILYCFKFYR	5.57 ± 0.097
PMFWRYILFSANNEPQFIRQ	0.073 ± 0.24
PMLGGRESEEPRVGWKVGWV	0.377 ± 0.27
PMSGVGYGRMRLSAAWPVDK	-0.604 ± 0.78
PMSRIKWILLSGLSKGLSYG	2.41 ± 0.17
PMTKCMLSSLGWCAHVPVRE	0.369 ± 0.52
PMVIYNFEFNFGVSSDRIYA	4.35 ± 0.15
PNFWVRFKYGYLSSLNSRTV	-0.375 ± 0.52
PNTLYSLTIIMSARLNSSLL	0.371 ± 0.57
PPGIRAYM	-0.036 ± 0.35
PPSLQ	-0.263 ± 1.4
PPVHSDFKWAFVWVQLVWRG	-0.016 ± 0.53
PQALGSTHLQTRRDQHVIF	-0.046 ± 0.53

Substance	amyloid nucleation score
PRGLVWNVPRLSKTVASILF	-0.942 ± 0.73
PRLLLGAHQSYLGACSAGYM	1.06 ± 0.71
PRPQLPVKYLYSRLIGETCG	3.25 ± 0.071
PRWSLCIPSVLSGVITTIMT	0.286 ± 0.27
PSCILMNLEVYND	0.827 ± 0.42
PSCRC	inactive
PSFRWIGSEMSTMFMLQVTL	0.058 ± 0.55
PSHFHHQ	0.305 ± 0.32
PSQHSIPLLTQVYVLL	5.54 ± 0.059
PSRLIYDYAAFTVVGLLEMF	-0.235 ± 0.56
PSSACCGSHFLCEQEFMICY	0.146 ± 0.71
PSYHSRPRSPYGNIEYKEHR	0.46 ± 0.36
PTDMPGHVTMSRGSCLEWVL	0.355 ± 0.36
PTGSYKAGSSSSLVYPFED	-0.062 ± 0.52
PTHDILFVTDSLTAKANDMV	-0.189 ± 0.32
PTIKRGTVGFNWVGRACSGK	-0.529 ± 0.57
PTPEANAIKGLYQRGNCVYG	-0.515 ± 1
PTRCQVWLGGTLHVRVVDLS	-0.424 ± 0.4
PTRLPYGTSLIWDTSHANWG	-0.706 ± 0.59
PVMLF	4.33 ± 0.11
PVQLRFRSSNIWTLMNQVFI	0.612 ± 0.95
PVRSL	-0.515 ± 0.48
PVYMGIAALYGPGCLTLLTV	2.07 ± 0.3
PWACSTSRSMLPSSSLPALM	0.814 ± 0.66
PWITCCKVNGIFLTDRCRVV	0.574 ± 0.3

Substance	amyloid nucleation score
PWRAGYGRRKLLSEGDFRLS	0.218 ± 0.62
PWYDRPRVSYSAFLVWIQLH	-0.417 ± 0.93
PYIVKVCGCDPLVHLFI	0.608 ± 0.23
PYKGIVMFVSGPP	-0.068 ± 0.54
PYLTICKIDYFYYLGRDSFF	4.47 ± 0.055
QCAYGWFRIIVITRFFCEDS	-0.701 ± 0.37
QCCLNVLDC	7.65 ± 0.084
QCSMGGRYVRQDS	-0.197 ± 0.6
QDDISLKFLGFGMIVSLIMF	0.007 ± 0.24
QDRPYVFY	-0.331 ± 0.44
QECMKLNLAFYWSDCVVRSF	1.76 ± 0.49
QFLLLPGNHHRFRSRHIRTL	-0.255 ± 0.26
QFVSLKFRVGLATS	0.045 ± 0.95
QGLGALMVRSFSFYLFVW	-0.241 ± 1.4
QIIKENFRRSY	2.45 ± 0.55
QIRLYSSGWMFGCAAYVVSM	0.853 ± 0.41
QISNRYPLVRPTLLFCGFPF	-0.224 ± 0.4
QKDSTPISGWFSFYMSVPFK	inactive
QKSVWKSITGRASFYSSLVR	inactive
QKSYMCRVGYPF	0.501 ± 0.72
QLESMIYCVVSFYAAGVNFE	-0.468 ± 1.9
QLTGW	-0.036 ± 0.22
QLVYCCLLILIYTYEC	0.499 ± 0.42
QMCLFKVNLVVTISI	inactive
QMKAVLRLRINICCPQVRGT	4.66 ± 0.1

Substance	amyloid nucleation score
QMVYRYDER	-1.43 ± 1.6
QNFWALGPIRRIYFVNVITN	7.315 ± 0.06
QNPRIKFIQHVPIYNEGTLP	1.17 ± 0.43
QNWMPRHLTITLNDIRLYL	4.95 ± 0.12
QPKFLVCFA	0.101 ± 0.6
QRCTIYRSSI	inactive
QRERMRGFKFDRLFCIRVWW	-1.03 ± 0.44
QRFLHVESYESCLVSVSNLS	-0.752 ± 1.9
QRKPVCSGLTLFHMLNRVTK	-0.484 ± 0.65
QRMCVYLGTLPLSLLGRMWG	0.175 ± 1.1
QRRHMCCVNAFFRDMRKGIG	1.63 ± 0.43
QRVVKVWWDTKPYVSMGSFL	0.563 ± 0.44
QSADLMNSMTLICGWSVQIA	4.43 ± 0.12
QSAYRSR	inactive
QSFSLS	0.609 ± 0.33
QSGAVTSSVRPQRVEVVRVV	-0.904 ± 0.88
QSGGVRVTNWRGNVTAT	0.043 ± 0.39
QSTNLAFLRICECSE	3.8 ± 0.071
QSTVTCRFMCVVWGSNW	-0.078 ± 0.47
QSVGMWSY	-0.256 ± 0.88
QSVKTQGVVCAVSIYFGGCS	2.39 ± 0.23
QTFTYKCFIHYFMRMWLVQI	-0.005 ± 0.75
QTGAAFMVAASRGKKTGVLR	0.327 ± 0.28
QTGKRYGTFLGYDGLEGRPD	-0.502 ± 0.55
QTKRSCCSFFVNL	6.603 ± 0.05

Substance	amyloid nucleation score
QTSDTNWGVLFTVYFLCQDM	-0.059 ± 0.67
QTVGGRFSSFY	inactive
QVCRARMHMEVGAMGTFHAS	0.521 ± 0.41
QVYYVCGYTSDKLLKNSYNN	-0.125 ± 0.45
QWCVKESAFIYEYRLSGDCL	-0.584 ± 0.74
QWGNLFLWKTIAESLLRD	1.47 ± 0.67
QWLYYVKEPIAYSLL	0.46 ± 0.24
QYHYNGGLPRQFK	-0.534 ± 0.54
QYMREEAGVALNGETHFFSL	0.567 ± 0.39
QYPLMK	0.319 ± 0.32
QYPRFHVTGTGRLCGSRMSY	-0.382 ± 0.4
QYRHTQSYRLELKVHGDFKR	-0.171 ± 1.1
QYVIQAYACTWCRCGKLQSG	7.693 ± 0.065
RAAALRRKRDD	0.203 ± 0.42
RACDNMYHYRCLLRSTEHHQ	-0.185 ± 0.22
RACVNSHQRMGGDGSLSMVL	2.48 ± 0.15
RADIKAIMLNYMIFA	inactive
RAFAFTW	2.38 ± 0.14
RAGIFKEYCSFATVKYVKDN	-1.04 ± 0.39
RAMVLCGGCTWPAREDNEKV	0.506 ± 0.33
RANQHRGYIFSILVTFCYST	-0.505 ± 0.51
RAWASVLGSFGIGVSCCGA	-0.85 ± 1.2
RCCKQTSRVDMC	0.156 ± 1.6
RCINRGNLAHGGGWCKCKAR	0.743 ± 0.54
RCKGNGKNISCSPFQSREWY	0.026 ± 0.33

Substance	amyloid nucleation score
RCMFAYLRVMDCNGGNVYPV	0.409 ± 0.21
RCMMQYKFTWGIVTYRKDLG	0.658 ± 0.34
RCRIWEEIGPIGKGERSRGC	0.405 ± 0.45
RCSLIPGRLPRNRFVRPDYC	-1.53 ± 1.3
RDHCARYHARDGTEPYSGHR	inactive
RDIWMATYRWVRVYSLMWIG	1.01 ± 0.48
RDMMMRRWVVSKSEL	0.711 ± 0.72
RDPYMCSLVRAGSGSKGTI	0.447 ± 0.56
RDSINLLDFGIVITGAKKWS	0.218 ± 0.27
RDSQMMNT	0.312 ± 0.37
RDTVTSNSSVT	4.36 ± 0.095
RDVECQLVSMHKGMWKLVEE	-0.041 ± 0.28
REANNPCRVNTKSIVVRLEV	-0.787 ± 0.32
REITCR	-0.24 ± 0.26
RERESQMYFNLFSENTY	-0.435 ± 0.51
RERSIWFSFDGCRRRRRYGG	1.41 ± 0.78
RERSYRSGDYRCYSIMWSAL	-0.382 ± 0.23
RESSAAVDTCTILKMTEKVG	-0.131 ± 0.66
RFFNHPMSFANMKLRSECTR	-0.832 ± 0.94
